Literature values in patent US9932367B2, “Modification of polypeptides” (BicycleRD Limited, priority 2013, dated 2018).
Starred links: 1 amine or outer side, 2 acyl side, 3 side chain; linkers in the order of their positions; H or OH if unused. Positions of bridges follow the written chain, without caps; N, C: chain ends. TBMB = c1c(C[*:1])cc(C[*:3])cc1C[*:2]

Legend:
rat PK = rat PK (Rattus norvegicus, UniProt P14272); conditions: highest concentration tested (10 μM)
human PK (hPK) = human PK (hPK) (Homo sapiens, UniProt P03952)
thrombin = thrombin (Homo sapiens, UniProt P00734); conditions: highest concentration tested (10 μM)
factor XIa (hfXIa) = factor XIa (hfXIa) (Homo sapiens, UniProt P03951); conditions: highest concentration tested (10 μM)
Chain of factor XIa (hfXIa) (P03951 388-625 limits assumed): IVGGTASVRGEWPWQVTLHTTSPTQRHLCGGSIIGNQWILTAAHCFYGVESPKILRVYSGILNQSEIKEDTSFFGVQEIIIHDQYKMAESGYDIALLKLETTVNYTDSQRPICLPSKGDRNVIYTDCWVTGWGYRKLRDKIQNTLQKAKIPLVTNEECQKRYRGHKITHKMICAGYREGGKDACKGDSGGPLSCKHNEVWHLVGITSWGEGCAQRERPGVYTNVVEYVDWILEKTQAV
Chain of factor XIa (hfXIa) (P03951 19-387 partner limits assumed): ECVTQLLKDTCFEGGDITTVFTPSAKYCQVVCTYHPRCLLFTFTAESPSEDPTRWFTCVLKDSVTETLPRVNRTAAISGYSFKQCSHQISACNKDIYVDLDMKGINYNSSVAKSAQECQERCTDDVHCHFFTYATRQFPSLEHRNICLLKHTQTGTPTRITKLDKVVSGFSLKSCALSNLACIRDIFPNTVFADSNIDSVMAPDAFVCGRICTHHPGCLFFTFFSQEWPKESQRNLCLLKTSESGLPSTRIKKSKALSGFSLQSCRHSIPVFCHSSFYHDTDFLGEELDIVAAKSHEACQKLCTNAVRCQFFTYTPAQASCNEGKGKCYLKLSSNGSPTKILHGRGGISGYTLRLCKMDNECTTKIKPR

Chain of rat PK (P14272 20-638): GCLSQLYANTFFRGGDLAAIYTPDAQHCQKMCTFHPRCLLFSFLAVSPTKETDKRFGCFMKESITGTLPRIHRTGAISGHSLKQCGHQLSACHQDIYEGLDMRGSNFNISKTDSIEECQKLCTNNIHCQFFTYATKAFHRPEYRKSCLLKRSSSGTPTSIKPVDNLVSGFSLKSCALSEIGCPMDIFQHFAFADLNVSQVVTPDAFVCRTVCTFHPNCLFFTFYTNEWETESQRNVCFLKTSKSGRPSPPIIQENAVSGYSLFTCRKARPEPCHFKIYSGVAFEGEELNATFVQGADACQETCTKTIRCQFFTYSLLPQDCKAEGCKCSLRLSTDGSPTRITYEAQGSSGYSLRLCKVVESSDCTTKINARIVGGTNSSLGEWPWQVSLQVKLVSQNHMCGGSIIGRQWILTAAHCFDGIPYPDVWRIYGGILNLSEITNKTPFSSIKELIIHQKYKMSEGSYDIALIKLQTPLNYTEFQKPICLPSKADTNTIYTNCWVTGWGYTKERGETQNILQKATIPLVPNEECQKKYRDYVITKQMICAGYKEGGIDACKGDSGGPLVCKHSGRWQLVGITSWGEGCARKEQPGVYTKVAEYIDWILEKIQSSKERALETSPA
Chain of human PK (hPK) (P03952 391-638 limits assumed): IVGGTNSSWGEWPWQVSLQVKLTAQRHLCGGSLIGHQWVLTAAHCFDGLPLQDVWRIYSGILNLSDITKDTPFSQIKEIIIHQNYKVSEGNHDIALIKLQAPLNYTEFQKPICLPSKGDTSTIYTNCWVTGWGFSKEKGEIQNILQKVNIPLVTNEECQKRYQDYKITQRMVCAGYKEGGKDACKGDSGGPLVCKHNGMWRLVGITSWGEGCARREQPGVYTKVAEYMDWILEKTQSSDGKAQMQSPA
Chain of human PK (hPK) (P03952 20-390 partner limits assumed): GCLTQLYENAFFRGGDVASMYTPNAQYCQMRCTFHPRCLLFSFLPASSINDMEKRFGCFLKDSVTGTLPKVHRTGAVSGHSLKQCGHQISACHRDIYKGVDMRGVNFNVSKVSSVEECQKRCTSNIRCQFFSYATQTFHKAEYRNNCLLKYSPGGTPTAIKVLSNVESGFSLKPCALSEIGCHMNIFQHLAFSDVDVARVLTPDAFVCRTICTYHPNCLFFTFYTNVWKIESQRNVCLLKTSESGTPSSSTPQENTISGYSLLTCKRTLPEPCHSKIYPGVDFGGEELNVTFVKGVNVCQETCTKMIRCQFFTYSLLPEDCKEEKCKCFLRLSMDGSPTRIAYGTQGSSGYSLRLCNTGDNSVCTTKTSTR

inhibition of rat PK (rat PK): did not inhibit | Ki (human PK (hPK)): 3 nM | inhibition of thrombin (thrombin): did not inhibit | inhibition of human factor XIa (factor XIa (hfXIa)): did not inhibit
Substance: three cysteines containing peptide (H-ACSDRFRNCPADEALCG-NH2) (SEQ ID NO: 18) coupled with TBMB; inhibitor of human plasma kallikrein (linker 2-9-16 via TBMB) [PK15]
